From publication PMC6897951, “Unusual features of the c-ring of F1FO ATP synthases” (Scientific Reports, 2019)

Molecular target: the molecule itself
Experiment: crystal structure; in meso crystallisation (monooleoyl lipidic phase) of solubilised cF1FO, 27.4 mg/mL, 0.1 M MES pH 5.8, 1.4 M ammonium sulfate, 22 °C; space group I121; 2.3 Å

B1: c-subunit of the spinach chloroplast F1FO ATP synthase (cF1FO), as the c14-ring (natural protein, Spinacia oleracea (spinach), UniProt P69447 1-81, looked up)
chain: MNPLIAAASVIAAGLAVGLASIGPGVGQGTAAGQAVEGIARQPEAEGKIRGTLLLSLAFMEALTIYGLVVALALLFANPFV
notes: ATP synthase subunit c of the chloroplast FO, Spinacia oleracea; Native protein from leaves; also called c1 subunit; c1 protomer; source: only the c14-ring crystallised; copies: 14
stoichiometry N: 14
